From patent publication US12508311B2, “Fusion protein, and preparation method and use thereof” (SUN YAT-SEN UNIVERSITY, priority 2021, dated 2025)

Legend:
[1] = test system: KRas mutant-type (HCT116) colorectal cancer; assay: In-vivo tumor formation experiment, HCT116 subcutaneous tumor; design: species or system mice; settings: seven times
Procedure: • (1) Balb/c nude mice, female, 4 weeks to 5 weeks old, purchased from Guangdong Laboratory Animal Center and raised in Laboratory Animal Center of Sun Yat-sen University, were used in this experiment. […] After counting, 7.5 million HT29 and HCT116 cells were taken respectively, washed twice with PBS, centrifuged at 300 g for 5 minutes after fishing each washing, and collected. • (3) The cell dilution buffer solution having the composition of PBS: matrix glue (Corning Company)=1:1 was prepared to resuspend the cells. […] In the experiment, the administration volume was 150 μL, the administration frequency was once every three days at a fixed time, and the administration was continued for seven times. • (6) After the administration, each mouse was injected with 150 μL of tribromoethanol, and then killed by cervical dislocation. […]
• (1) Balb/c nude mice, female, 4 weeks to 5 weeks old, purchased from Guangdong Laboratory Animal Center and raised in Laboratory Animal Center of Sun Yat-sen University, were used in this experiment. The experimental mice were divided into two groups, with five mice in each group, which were respectively a phosphate buffer solution (PBS) control group and a […]. • (2) The HT29 and HCT116 cells in the logarithmic phase were digested with pancreatin, the digestion was stopped with the complete culture solution, and then the cells were counted. […]

[2] = molecular target: T1, KRas protein in HT29 (KRas wt) cells (Homo sapiens, UniProt P01116); assay: Co-immunoprecipitation (Co-IP) in HT29 cells; assay type: cell-based; settings: 20 μg/mL, 24 hours, Lys05 10 μM
T1 construct: host or cells: HT29
Procedure: The co-immunoprecipitation experiment (Co-IP) was an important means to detect the intracellular interaction of the protein. […] The experiment was carried out in the presence of the lysosome inhibitor Lys05 with a final concentration of 10 μM. • (2) The cells were cultured and treated at 37° C. for 24 hours, and then cleaned twice with PBS, and 1 mL of 0.25% pancreatin was added into each culture dish to digest the cells and make the cells fall off from the culture dish wall. Then, 2 mL of complete culture solution was added into each culture dish to stop the digestion , centrifuged at the room temperature and 300 g for 3 minutes, to collect the cells. […] The colorectal cancer cells were lysed on ice, turned upside down for several times every 5 minutes gently without vortex, and centrifuged at 4° C. and 12,000 rpm for 30 minutes after being lysed for 30 minutes. • (4) The supernatant was transferred to a new EP tube, the protein concentration was measured by the BCA method, and then 1 mg of protein was taken from each group for a Co-IP reaction. […] Meanwhile, 30 μL of protein sample was also taken from the Input group, vortically vibrated for 1 minute, boiled in boiled water for 10 minutes, and centrifuged, and the supernatant was collected in a new 1.5 mL EP tube. • (8) The protein concentration was measured by the BCA method. […]

B1: TKD: fusion protein: tumour-cell-penetrating peptide BR2, anti-KRas nanobody VHH and lysosome recognition peptide CTM; SEQ ID NO.4 (protein)
chain: RAGLQFPVGRLLRRLLRDVQLQESGGGLVQAGGSLRLSCVASGRTFSTYPTGWFRQAPGKEREFVARINLSGGITNYADSVKGRFTISRDNAKNTVYLQMNSLKPEDTAVYYCGGGSTTWAGGIPTNFDYWGQGTQVTVSSGRKFERQKILDQRFFE
[1]; TKD 25 and 50 mg/kg intraperitoneal, once every three days, vs PBS
  inhibition of tumor growth (tumor weight): could significantly inhibit the growth
[1]; intraperitoneal
  tumor growth inhibition, TKD-50 mg/kg group compared with TKD-25 mg/kg group: had a better effect than the TKD-25 mg/kg group
[2]
  binding to KRas protein in cells (Co-IP): could pass through the cell membrane and bind to the wild-type and mutant-type KRas proteins in cells without discrimination
